According to paper PMC3279516, “Superhelical Architecture of the Myosin Filament-Linking Protein Myomesin with Unusual Elastic Properties” (PLoS Biology, 2012):

Key:
[1] = molecular target: the molecule itself; assay: crystal structure; My11–My13 at 10 mg/ml; 0.1 M MES pH 6, 0.22 M lithium sulfate, 13% PEG 8000; 3.5 Å; molecular replacement with the (My13)2 dimer module of 2R15
[2] = molecular target: the molecule itself; assay: small angle X-ray scattering (SAXS); 4–15 mg/ml, 25 mM Tris/HCl pH 7.5, 150 mM NaCl, 290 K; extrapolated to infinite dilution; mass by comparison with bovine serum albumin

B1: myomesin My11–My13 (residues 1352–1666) (domain or fragment, human, UniProt P52179 1352-1666, looked up)
chain: WIRKQGPHFVEYLSWEVTGECNVLLKCKVANIKKETHIVWYKDEREISVDEKHDFKDGICTLLITEFSKKDAGIYEVILKDDRGKDKSRLKLVDEAFKELMMEVCKKIALSATDLKIQSTAEGIQLYSFVTYYVEDLKVNWSHNGSAIRYSDRVKTGVTGEQIWLQINEPTPNDKGKYVMELFDGKTGHQKTVDLSGQAYDEAYAEFQRLKQAAIAEKNRARVLGGLPDVVTIQEGKALNLTCNVWGDPPPEVSWLKNEKALASDDHCNLKFEAGRTAYFTINGVSTADSGKYGLVVKNKYGSETSDFTVSVFIP
notes: myomesin (MYOM1), human, Ig domains My11–My13, residues 1352–1666 of MYOM1_HUMAN; Vector pET151/D-TOPO with N-terminal His6 and TEV site; also called My11–My13 triplet; source: E. coli BL21 (DE3) CodonPlus-RP, purified (Ni-NTA, size exclusion chromatography)
Does B1 bind [1]?
Result: binds

B2: myomesin My9–My13 (residues 1141–1666) (domain or fragment, human, UniProt P52179 1141-1666, looked up)
chain: TKEVVVNVDDDGVISLNFECDKMTPKSEFSWSKDYVSTEDSPRLEVESKGNKTKMTFKDLGMDDLGIYSCDVTDTDGIASSYLIDEEELKRLLALSHEHKFPTVPVKSELAVEILEKGQVRFWMQAEKLSGNAKVNYIFNEKEIFEGPKYKMHIDRNTGIIEMFMEKLQDEDEGTYTFQLQDGKATNHSTVVLVGDVFKKLQKEAEFQRQEWIRKQGPHFVEYLSWEVTGECNVLLKCKVANIKKETHIVWYKDEREISVDEKHDFKDGICTLLITEFSKKDAGIYEVILKDDRGKDKSRLKLVDEAFKELMMEVCKKIALSATDLKIQSTAEGIQLYSFVTYYVEDLKVNWSHNGSAIRYSDRVKTGVTGEQIWLQINEPTPNDKGKYVMELFDGKTGHQKTVDLSGQAYDEAYAEFQRLKQAAIAEKNRARVLGGLPDVVTIQEGKALNLTCNVWGDPPPEVSWLKNEKALASDDHCNLKFEAGRTAYFTINGVSTADSGKYGLVVKNKYGSETSDFTVSVFIP
notes: myomesin (MYOM1), human, Ig domains My9–My13, residues 1141–1666 of MYOM1_HUMAN; Vector pET151/D-TOPO with N-terminal His6 and TEV site; also called C-terminal myomesin filament; My9–My10–My11–My12–(My13)2–My12′–My11′–My10′–My9′; source: E. coli BL21 (DE3) CodonPlus-RP, purified (Ni-NTA, size exclusion chromatography)
With B2 as the protein, how does the “stoichiometry N” value [2] read?
Its value is 2.
